From US6710030 come the findings set out here.

Some results are limits rather than exact numbers.

Holding throughout (test): cell-based or functional assay
Test [1] deals with integrin αvβ3 on cells (T24, MDA-MB-435, β3-transfected 293 cells) (human) (UniProt P06756).
The target in test [2] is integrin αvβ5 on cells (T24, T24-β3 neg., OVCAR-5) (human) (UniProt P06756).
Test [3] deals with integrin receptors on the surface of MDA-MB-435 cells.

Sequence of integrin αvβ5 on cells (T24, T24-β3 neg., OVCAR-5) (human) (P06756 31-1048, chain 1 of 2): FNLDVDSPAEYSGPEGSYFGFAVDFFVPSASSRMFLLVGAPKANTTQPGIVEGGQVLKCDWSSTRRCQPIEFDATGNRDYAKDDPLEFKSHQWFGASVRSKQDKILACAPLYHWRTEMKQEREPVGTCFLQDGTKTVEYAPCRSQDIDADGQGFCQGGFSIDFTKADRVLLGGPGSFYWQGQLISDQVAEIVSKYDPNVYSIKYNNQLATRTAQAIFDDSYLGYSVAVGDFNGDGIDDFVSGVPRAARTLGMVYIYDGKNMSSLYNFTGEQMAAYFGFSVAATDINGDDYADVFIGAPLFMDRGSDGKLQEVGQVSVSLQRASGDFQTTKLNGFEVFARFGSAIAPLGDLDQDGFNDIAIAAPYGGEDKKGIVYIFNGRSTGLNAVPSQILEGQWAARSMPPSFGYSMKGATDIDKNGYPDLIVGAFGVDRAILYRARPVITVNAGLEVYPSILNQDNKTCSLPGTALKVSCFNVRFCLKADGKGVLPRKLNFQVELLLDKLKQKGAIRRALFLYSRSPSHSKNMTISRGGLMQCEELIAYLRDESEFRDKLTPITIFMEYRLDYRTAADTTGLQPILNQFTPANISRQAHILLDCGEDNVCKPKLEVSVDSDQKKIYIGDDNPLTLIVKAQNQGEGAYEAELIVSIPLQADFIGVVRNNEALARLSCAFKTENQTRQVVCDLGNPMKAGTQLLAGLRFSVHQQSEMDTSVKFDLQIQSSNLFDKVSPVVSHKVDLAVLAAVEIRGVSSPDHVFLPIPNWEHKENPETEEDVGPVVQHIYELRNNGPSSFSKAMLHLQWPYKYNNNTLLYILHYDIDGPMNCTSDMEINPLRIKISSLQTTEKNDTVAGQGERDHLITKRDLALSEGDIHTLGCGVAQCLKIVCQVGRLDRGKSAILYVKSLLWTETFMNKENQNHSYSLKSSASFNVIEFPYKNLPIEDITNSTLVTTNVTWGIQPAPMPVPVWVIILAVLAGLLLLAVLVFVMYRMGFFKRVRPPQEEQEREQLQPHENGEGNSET
Sequence of integrin αvβ5 on cells (T24, T24-β3 neg., OVCAR-5) (human) (P18084 24-799, chain 2 of 2, further chain): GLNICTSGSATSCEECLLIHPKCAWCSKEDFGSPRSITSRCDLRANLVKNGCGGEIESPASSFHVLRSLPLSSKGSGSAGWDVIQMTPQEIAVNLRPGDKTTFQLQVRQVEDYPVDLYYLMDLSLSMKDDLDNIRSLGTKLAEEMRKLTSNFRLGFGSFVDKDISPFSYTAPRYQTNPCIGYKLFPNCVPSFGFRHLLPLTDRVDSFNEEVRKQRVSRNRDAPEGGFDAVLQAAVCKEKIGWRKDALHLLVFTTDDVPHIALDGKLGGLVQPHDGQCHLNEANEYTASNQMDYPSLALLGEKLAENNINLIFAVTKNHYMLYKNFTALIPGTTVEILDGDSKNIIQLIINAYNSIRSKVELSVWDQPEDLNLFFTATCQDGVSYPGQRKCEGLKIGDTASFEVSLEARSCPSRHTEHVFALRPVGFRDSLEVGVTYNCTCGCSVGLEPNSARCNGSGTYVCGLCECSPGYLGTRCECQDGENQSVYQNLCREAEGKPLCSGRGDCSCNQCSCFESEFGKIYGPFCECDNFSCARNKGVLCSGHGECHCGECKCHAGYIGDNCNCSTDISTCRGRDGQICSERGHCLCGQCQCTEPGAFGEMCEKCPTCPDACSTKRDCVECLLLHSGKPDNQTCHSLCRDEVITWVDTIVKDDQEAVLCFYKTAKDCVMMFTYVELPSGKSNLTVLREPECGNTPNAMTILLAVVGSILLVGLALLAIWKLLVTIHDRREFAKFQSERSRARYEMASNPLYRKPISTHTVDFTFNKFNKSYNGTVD
Sequence of integrin αvβ3 on cells (T24, MDA-MB-435, β3-transfected 293 cells) (human) (P06756 31-1048, chain 1 of 2): as the sequence (P06756 31-1048, chain 1 of 2) above
Sequence of integrin αvβ3 on cells (T24, MDA-MB-435, β3-transfected 293 cells) (human) (P05106 27-788, chain 2 of 2, further chain): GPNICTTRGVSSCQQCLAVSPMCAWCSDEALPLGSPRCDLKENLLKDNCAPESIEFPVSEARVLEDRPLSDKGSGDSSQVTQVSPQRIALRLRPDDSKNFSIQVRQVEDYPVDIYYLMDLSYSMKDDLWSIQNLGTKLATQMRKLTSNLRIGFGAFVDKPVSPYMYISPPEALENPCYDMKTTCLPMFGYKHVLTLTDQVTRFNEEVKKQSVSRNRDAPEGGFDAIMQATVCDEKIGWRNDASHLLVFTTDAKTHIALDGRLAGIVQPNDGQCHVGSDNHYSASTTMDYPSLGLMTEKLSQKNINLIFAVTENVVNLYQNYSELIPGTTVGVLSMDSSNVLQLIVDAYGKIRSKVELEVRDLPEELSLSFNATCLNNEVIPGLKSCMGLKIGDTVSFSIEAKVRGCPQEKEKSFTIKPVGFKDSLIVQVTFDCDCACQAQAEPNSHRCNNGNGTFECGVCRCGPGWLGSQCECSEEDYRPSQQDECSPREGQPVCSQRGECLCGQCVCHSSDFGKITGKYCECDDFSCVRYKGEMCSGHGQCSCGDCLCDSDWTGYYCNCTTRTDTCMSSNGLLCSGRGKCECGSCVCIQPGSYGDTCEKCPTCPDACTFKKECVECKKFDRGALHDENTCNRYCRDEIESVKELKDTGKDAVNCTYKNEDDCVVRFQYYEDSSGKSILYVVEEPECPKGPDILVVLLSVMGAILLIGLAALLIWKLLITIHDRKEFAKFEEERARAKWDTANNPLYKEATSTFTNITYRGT

For the substance “7E3, murine monoclonal antibody against (GP)IIb/IIIa that also binds αvβ3”, the inhibition of adhesion of T24 cells to immobilized vitronectin in test [1] was below 40%. For P1F6, anti-αvβ5 monoclonal antibody, in test [2], the inhibition of adhesion of T24-β3 neg. cells to immobilized vitronectin is 80% and the inhibition of adhesion of T24 cells to immobilized vitronectin was below 40%. As for RGD peptide GRGDSP, the inhibition of binding of MDA-MB-435 cells to immobilized CN (IC50) in test [3] turned out to be 400 µM.
